Measured values: PMC10752582 (eLife, 2023)

B1: 6xHis-BRAF kinase domain, wild type (amino acids 442-723 with 16 solubilizing mutations) (domain or fragment, UniProt P15056 442-723, looked up)
chain: GRRDSSDDWEIPDGQITVGQRIGSGSFGTVYKGKWHGDVAVKMLNVTAPTPQQLQAFKNEVGVLRKTRHVNILLFMGYSTKPQLAIVTQWCEGSSLYHHLHASETKFEMKKLIDIARQTARGMDYLHAKSIIHRDLKSNNIFLHEDNTVKIGDFGLATVKSRWSGSHQFEQLSGSILWMAPEVIRMQDSNPYSFQSDVYAFGIVLYELMTGQLPYSNINNRDQIIEMVGRGSLSPDLSKVRSNCPKRMKRLMAECLKKKRDERPSFPRILAEIEELARELSG
modifications: biotin (Sulfo-NHS-biotin, 50 molar excess) in the pull-downs on streptavidin beads
notes: BRAF kinase domain, amino acids 442-723, with 16 solubilizing mutations; Designed as in Cope et al., 2020; Amine-coupled to a carboxyl sensor in OpenSPR, biotinylated in pull-downs; also called KD; BRAF-KD; source: E. coli BL21 codon +, purified (cobalt resin, SEC); not shown: 6xHis, N-terminal, kept
B2: BRAF-CRD only protein NT5 (residues 234-288) (domain or fragment, UniProt P15056 234-288, looked up)
chain: THNFVRKTFFTLAFCDFCRKLLFQGFRCQTCGYKFHQRCSTEVPLMCVNYDQLDL
notes: BRAF residues 234-288 (CRD only); also called BRAF NT5; source: E. coli BL21 codon +, purified

What was measured:
Test in all cases: SPR; OpenSPR; BRAF-KD WT or D594G amine-coupled to a carboxyl sensor (~6000 RUs), BRAF NTs flowed at 30 µL/min; 20 mM HEPES pH 7.4, 150 mM NaCl, 5% glycerol, 0.005% Tween-20, 1% BSA; 1:1 fit
Conditions in all cases: both partners purified
[1] = biological target: T1, His/MBP-BRAF NT1 (aa 1-288) (UniProt P15056 1-288)
T1 construct: BRAF residues 1-288 (BSR, RBD and CRD); Cloned in the pET28-MBP vector; also called His/MBP-NT1; source: E. coli BL21 codon +, purified (Ni-NTA, SEC); not shown: 6xHis, N-terminal, kept; MBP, N-terminal, kept

[2] = biological target: T2, untagged BRAF NT1 (His/MBP-tag removed by TEV protease) (UniProt P15056 1-288)
T2 construct: BRAF residues 1-288 (BSR, RBD and CRD); also called untagged NT1; source: E. coli BL21 codon +, purified, tag cleaved with TEV protease; not shown: 6xHis, N-terminal, cleaved; MBP, N-terminal, cleaved

[3] = biological target: B1

| Kd [1] [nM] | Kd [2] [nM] | Kd [3] [nM] | Binder |
| --- | --- | --- | --- |
| 11 | 13 | – | B1 |
| – | – | > 6000 | B2 |
